Values of other authors as cited in patent US7186797B2, “Polypeptide conjugates with extended circulating half-lives” (Epix Pharmaceuticals, Inc., priority 2001, dated 2007).

B1: granulocyte colony stimulating factor: commercially important polypeptide-based drug currently in use (protein, UniProt P09919 31-207, looked up)
Granulocyte …: TPLGPASSLPQSFLLKCLEQVRKIQGDGAALQEKLVSECATYKLCHPEELVLLGHSLGIPWAPLSSCPSQALQLAGCLSQLHSGLFLYQGLLQALEGISPELGPTLDTLQLDVADFATTIWQQMEELGMAPALQPTQGAMPAFASAFQRRAGGVLVASHLQSFLEVSYRVLRHLAQP
B2: interferon γ: commercially important polypeptide-based drug currently in use (protein, UniProt P01579 24-161, looked up)
Interferon gamma: QDPYVKEAENLKKYFNAGHSDVADNGTLFLGILKNWKEESDRKIMQSQIVSFYFKLFKNFKDDQSIQKSVETIKEDMNVKFFNSNKKKRDDFEKLTNYSVTDLNVQRKAIHELIQVMAELSPAAKTGKRKRSQMLFRG

Details: unconjugated polypeptide drug, background statement

Going from “Erythropoietin: commercially important polypeptide-based drug currently in use” to “granulocyte macrophage colony stimulating factor: commercially important polypeptide-based drug currently in use”, the t1/2 falls from 180 min to 120 min (1.5-fold).

“human growth hormone: commercially important polypeptide-based drug currently in use” and relaxin are the same in t1/2: 30 min for the first, 30 min for the second.

streptokinase and “tissue plasminogen activator: commercially important polypeptide-based drug currently in use” are within 1.5-fold of each other in t1/2: 80 min for the first, 55 min for the second.

Going from tumor necrosis factor to urokinase, the t1/2 rises from 18 min to 50 min (2.8-fold).

Going from B1 to B2, the t1/2 falls from 120 min to 30 min (4-fold).
